# Values quoted from earlier work, collected in patent US11207433B2, “Imaging agents and uses thereof” (Washington University, priority 2018, dated 2021).
# Bridges are numbered along the chain shown (N, C = ends). Where no end group is shown, it is not given here.
# Target: T1, NPR-C receptor (Homo sapiens, UniProt P17342)
# T1 sequence (P17342 27-541): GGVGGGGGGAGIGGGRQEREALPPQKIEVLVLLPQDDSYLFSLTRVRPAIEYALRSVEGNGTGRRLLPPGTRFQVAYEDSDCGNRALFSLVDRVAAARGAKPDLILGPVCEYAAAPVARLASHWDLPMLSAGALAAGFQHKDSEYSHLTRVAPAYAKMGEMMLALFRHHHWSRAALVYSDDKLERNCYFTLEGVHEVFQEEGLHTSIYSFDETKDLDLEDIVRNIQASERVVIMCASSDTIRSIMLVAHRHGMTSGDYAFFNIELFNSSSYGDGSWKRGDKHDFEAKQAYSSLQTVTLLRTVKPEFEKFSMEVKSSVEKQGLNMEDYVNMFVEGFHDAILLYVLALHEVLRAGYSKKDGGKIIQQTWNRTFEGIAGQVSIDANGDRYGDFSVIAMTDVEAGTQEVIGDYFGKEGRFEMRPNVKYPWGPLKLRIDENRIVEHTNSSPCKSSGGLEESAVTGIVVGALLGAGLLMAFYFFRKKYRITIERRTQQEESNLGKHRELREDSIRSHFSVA
# Details: in vivo
substance,measurement,value
"^64Cu-DOTA-CANF-Comb: CANF peptide functionalized polymeric nanoparticle, described in U.S. Patent Application Publication No. 2011/0300071 (RSSCFGGRIDRIGAC-NH2; disulfide 4-15; also: conjugated to polymeric nanoparticle, DOTA chelator, 64Cu label)",delay from injection to optimal PET imaging time,~12 h
